Article PMC3589453, “Structural Characterization of the Self-Association of the Death Domain of p75^NTR” (PLoS ONE, 2013)

Key:
[1] = target: p75DD-Fusion (chimera of the p75NTR death domain and a p75-interacting peptide from NRIF) (rat | not stated) (UniProt P07174); experiment: SEC; purified p75NTR constructs and their mutants on a Superdex 75 column; monomer and dimer peaks; some runs with beta-ME or DTNB
[2] = target: p75CTD symmetric dimer (dimer of the C416S mutant of p75CTD) (rat) (UniProt P07174); experiment: SPR; Biacore 3000, 25 °C; p75CTD monomer and dimer coupled onto a CM-5 chip at equal molarities; NRIF peptide flowed over; 50 mM Hepes-KOH pH 7.5, 100 mM KCl, 5% glycerol, 0.005% Tween-20
[3] = target: T1, p75CTD monomer (p75CTD C379S/C416S) (rat, UniProt P07174 334-425, C379S | C416S, biotinylated for the BLI assay); experiment: as above; details: both partners purified
T1 construct: p75NTR, rat, residues 334-425; Mutant of m3; the tag is that of the parent construct; Biotinylated for BLI, coupled onto a CM-5 chip for SPR; also called double cysteine residue mutant
T1 sequence (looked up): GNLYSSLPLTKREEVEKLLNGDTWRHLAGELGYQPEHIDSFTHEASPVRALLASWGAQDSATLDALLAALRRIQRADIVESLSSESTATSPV

[4] = target: T1, p75CTD monomer (p75CTD C379S/C416S); experiment: BLI; Octet (ForteBio); biotinylated p75CTD proteins loaded on Streptavidin High Binding FA biosensors; RIP2 CARD in solution at 5 µM, then 20, 10, 5 and 2 µM for the monomer; 50 mM Hepes-NaOH pH 7.5, 100 mM NaCl, 5% glycerol, 1 mM EDTA; details: both partners purified
[5] = target: T2, p75CTD monomer (p75CTD C379S/C416S) (rat, UniProt P07174 334-425, C379S | C416S, biotinylated for the BLI assay); experiment: BLI
T2 sequence: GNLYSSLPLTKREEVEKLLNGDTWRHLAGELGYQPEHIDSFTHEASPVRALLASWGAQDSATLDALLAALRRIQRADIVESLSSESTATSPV

[6] = target: the molecule itself; experiment: SEC; purified p75NTR constructs and their mutants on a Superdex 75 column; monomer and dimer peaks; some runs with beta-ME or DTNB
[7] = target: the molecule itself; experiment: crystal structure; p75DD modified with DTNB; sitting drop, 4 °C, 0.1 M Bis-Tris propane pH 7.0, 1.2 M sodium citrate; asymmetric dimer in the crystal lattice
[8] = target: the molecule itself; experiment: immunoprecipitation and non-reducing SDS-PAGE immunoblot; HA-p75NTR in transfected HEK 293T cells without ligand; lysate in 40 mM Tris pH 7.6, 150 mM NaCl, 0.5% NP-40, 10% glycerol; anti-HA immunoprecipitates boiled with or without DTT, blotted with anti-HA

p75DD-Fusion (chimera of the p75NTR death domain and a p75-interacting peptide from NRIF) (from UniProt P07174 334-418)
stoichiometry N [1]: 2

NRIF peptide (residues 552-577), chemically synthesized
Kd [2]: 10 µM

MESGAGRASDNSLLTHALPVKSHQKG [NRIF peptide (residues 552-577), chemically synthesized]
Kd [3]: ~10 µM

B1: Human RIP2 CARD domain (residues 438-524) (domain or fragment, UniProt O43353 438-524, looked up)
chain: QWIQSKREDIVNQMTEACLNQSLDALLSRDLIMKEDYELVSTKPTRTSKVRQLLDTTDIQGEEFAKVIVQKLKDNKQMGLQPYPEIL
notes: pET24a vector; also called CARD protein; source: E. coli, purified (similar to p75DD)
fold stronger than the NRIF peptide on p75CTD (KD about 10^-5 M) [4]: ~100 fold | Kd [5]: 240 nM

B2: p75DD (rat p75NTR death domain, residues 334-418) (domain or fragment, UniProt P07174 334-418, looked up)
chain: GNLYSSLPLTKREEVEKLLNGDTWRHLAGELGYQPEHIDSFTHEACPVRALLASWGAQDSATLDALLAALRRIQRADIVESLCSE
notes: p75NTR (neurotrophin receptor p75), rat, death domain, residues 334-418; pET24a vector; Not treated with DTNB in the solution experiments (the DTNB-treated crystal form is m2); also called His6-tagged p75DD; source: E. coli BL21, purified (Ni-NTA, size-exclusion chromatography); also co-expressed in E. coli with GST-tagged NRIF loop region (521-661); not shown: His6, C-terminal, kept
stoichiometry N [6]: 2

B3: p75DD modified with DTNB (as crystallised) (domain or fragment, rat, UniProt P07174 334-418, looked up)
chain: GNLYSSLPLTKREEVEKLLNGDTWRHLAGELGYQPEHIDSFTHEACPVRALLASWGAQDSATLDALLAALRRIQRADIVESLCSE
modifications: Cys379 and Cys416 modified by DTNB (MNB group)
notes: p75NTR, rat, death domain, residues 334-418 (334-417 traced in the structure); Same construct as m1 after treatment with DTNB at a 5:1 molar ratio; also called DTNB-modified p75DD; source: E. coli BL21, purified (Ni-NTA, size-exclusion chromatography), then modified with DTNB
binding result [7]: binds

B4: p75CTD C416S (domain or fragment, rat, UniProt P07174 334-425, looked up)
chain: GNLYSSLPLTKREEVEKLLNGDTWRHLAGELGYQPEHIDSFTHEACPVRALLASWGAQDSATLDALLAALRRIQRADIVESLSSESTATSPV
notes: p75NTR, rat, residues 334-425; Mutant of m3, the single chain for its self-association; the isolated dimer is m12; also called C416S mutant of p75CTD
stoichiometry N [6]: 2

B5: p75CTD (rat p75NTR residues 334-425) (domain or fragment, UniProt P07174 334-425, looked up)
chain: GNLYSSLPLTKREEVEKLLNGDTWRHLAGELGYQPEHIDSFTHEACPVRALLASWGAQDSATLDALLAALRRIQRADIVESLCSESTATSPV
notes: p75NTR, rat, death domain and C-terminal tail, residues 334-425; pET24a vector; source: E. coli BL21, purified (Ni-NTA, size-exclusion chromatography)
stoichiometry N [6]: 2

B6: p75ICD (rat p75NTR intracellular region, residues 280-425) (domain or fragment, UniProt P07174 280-425, looked up)
chain: KQNKQGANSRPVNQTPPPEGEKLHSDSGISVDSQSLHDQQTHTQTASGQALKGDGNLYSSLPLTKREEVEKLLNGDTWRHLAGELGYQPEHIDSFTHEACPVRALLASWGAQDSATLDALLAALRRIQRADIVESLCSESTATSPV
notes: p75NTR, rat, intracellular region, residues 280-425; pET24a vector; source: E. coli BL21, purified (Ni-NTA, size-exclusion chromatography)
stoichiometry N [6]: 2

B7: full-length rat p75NTR with N-terminal HA tag (receptor, UniProt P07174 30-425, looked up)
chain: KETCSTGLYTHSGECCKACNLGEGVAQPCGANQTVCEPCLDNVTFSDVVSATEPCKPCTECLGLQSMSAPCVEADDAVCRCAYGYYQDEETGHCEACSVCEVGSGLVFSCQDKQNTVCEECPEGTYSDEANHVDPCLPCTVCEDTERQLRECTPWADAECEEIPGRWIPRSTPPEGSDSTAPSTQEPEVPPEQDLVPSTVADMVTTVMGSSQPVVTRGTTDNLIPVYCSILAAVVVGLVAYIAFKRWNSCKQNKQGANSRPVNQTPPPEGEKLHSDSGISVDSQSLHDQQTHTQTASGQALKGDGNLYSSLPLTKREEVEKLLNGDTWRHLAGELGYQPEHIDSFTHEACPVRALLASWGAQDSATLDALLAALRRIQRADIVESLCSESTATSPV
notes: p75NTR, rat, full length; pCDNA3 construct, a gift; also called wildtype; full-length p75NTR; source: HEK 293T, transiently transfected, in lysate; not shown: HA, N-terminal, kept
stoichiometry N [8]: 2
